Reference: paper PMC6204900

Tests used:
[1] = target: human IGF-1 receptor (IGF-1R) on CHO-K1 cells stably transfected with pcDNA3-IGF-1R (human) (UniProt P08069); test: radioligand binding; association kinetics; CHO-R+ cells (10^7/mL) in HEPES binding buffer pH 7.6 with about 0.03 nM 125I-labelled ligand at 15 °C; cells pelleted at time points; fit: association kinetics, one concentration of hot (GraphPad Prism 5) with the dissociation rate set; apparent constants
[2] = target: human insulin receptor isoform A (IR-A) on IM-9 lymphocytes (human (endogenous in IM-9)) (UniProt P06213); test: radioligand binding; dissociation kinetics without cold ligand; IM-9 cells (3x10^7/mL) preincubated with about 0.03 nM 125I-labelled ligand at 15 °C ([…] insulin and analog, 4 h IGF-1), washed, diluted 40 times, 15 °C; one phase exponential decay
[3] = target: human insulin receptor isoform A (IR-A) on IM-9 lymphocytes (human (endogenous in IM-9)) (UniProt P06213); test: radioligand binding; association kinetics; IM-9 cells (10^7/mL) in HEPES binding buffer pH 7.6 with about 0.03 nM 125I-labelled ligand at 15 °C; cells pelleted at time points; fit: association kinetics, one concentration of hot (GraphPad Prism 5) with the dissociation rate set; apparent constants
[4] = target: human IGF-1 receptor (IGF-1R) on CHO-K1 cells stably transfected with pcDNA3-IGF-1R (human) (UniProt P08069); test: radioligand binding; dissociation kinetics without cold ligand; CHO-R+ cells (3x10^7/mL) preincubated with about 0.03 nM 125I-labelled ligand at 15 °C ([…] analog and IGF-1, 7 h insulin), washed, diluted 40 times, 15 °C; one phase exponential decay
[5] = target: IGF-1 receptor (in transfected mouse embryonic fibroblasts R+39) (human) (UniProt P08069); test: radioligand binding; whole-cell receptor-binding assay on IGF-1R null mouse embryonic fibroblasts stably transfected with human IGF-1R; each binding curve in duplicate, Kd from at least three curves; details in the supporting information
[6] = target: insulin receptor isoform B (human) (UniProt P06213); test: radioligand binding; whole-cell receptor-binding assay on IGF-1R null mouse embryonic fibroblasts stably transfected with human IR-B; each binding curve in duplicate, Kd from at least three curves; details in the supporting information
[7] = target: IGF-1 receptor (in transfected mouse embryonic fibroblasts R+39) (human) (UniProt P08069)
[8] = target: insulin receptor isoform A (human (endogenous in IM-9)) (UniProt P06213); test: radioligand binding; whole-cell receptor-binding assay on human IM-9 lymphocytes (containing IR-A); each binding curve in duplicate, Kd from at least three curves; details in the supporting information

[Gly^B31, Tyr^B32]-insulin, sequence (P01308 90-110): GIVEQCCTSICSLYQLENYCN
[Gly^B31, Tyr^B32]-insulin, sequence (P01308 other isoform, or with tags, fused parts or gaps): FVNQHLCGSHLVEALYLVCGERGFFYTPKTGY

Question: Which kon [1] does the source give for “125I-[D-HisB24, GlyB31, TyrB32]-insulin (ligand)” here?
Answer: Its kon is 7.83e+07 M⁻¹ s⁻¹.

Question: And the koff [2]?
Answer: The koff was 2.83e-05 s⁻¹.

Question: And the kon [3]?
Answer: Its kon is 5.87e+07 M⁻¹ s⁻¹.

Question: What about the koff [4] of the same substance?
Answer: The koff was 0.000107 s⁻¹.

Question: “[D-His^B24, Gly^B31, Tyr^B32]-insulin (from UniProt P01308 90-110) (ligand)” was tested. Which Kd [5] did it give?
Answer: The Kd was 0.89 nM.

Question: Which Kd [6] does the source give for “[D-His^B24]-des-(B27-B30)-tetrapeptide-B26-carboxamide insulin (from UniProt P01308 90-110) (ligand)” here?
Answer: Its Kd is 0.3 nM.

Question: With “[Gly^B31, Tyr^B32]-insulin (from UniProt P01308 90-110; P01308 25-54) (ligand)” as the substance, how does the autophosphorylation of IGF-1R (immunoblot), IGF-1R-transfected mouse fibroblasts, 10 nM ligand, against insulin; not significant in the analysis of variance [7] read?
Answer: Its autophosphorylation of IGF-1R (immunoblot), IGF-1R-transfected mouse fibroblasts, 10 nM ligand, against insulin; not significant in the analysis of variance is 3 fold.

Question: With “[Tyr^B25, Phe^B26, Asn^B27, Lys^B28, Pro^B29, Gly^B31, Tyr^B32]-insulin (from UniProt P01308 90-110) (ligand)” as the substance, how does the autophosphorylation of IGF-1R (immunoblot), IGF-1R-transfected mouse fibroblasts, 10 nM ligand, against insulin; not significant in the analysis of variance [7] read?
Answer: The autophosphorylation of IGF-1R (immunoblot), IGF-1R-transfected mouse fibroblasts, 10 nM ligand, against insulin; not significant in the analysis of variance was 3 fold.

Question: How did the Kd [6] turn out when “human insulin-like growth factor 1 (from UniProt P05019 49-118) (ligand)” was run?
Answer: Its Kd is 224 nM.

Question: And the Kd [8]?
Answer: The Kd was 31.5 nM.

Question: Which results are given for “insulin-like growth factor 2 (from UniProt P01344 25-91) (ligand)”?
Answer: Kd [6]: 35.5 nM; Kd [8]: 2.92 nM; Kd [5]: 2.32 nM
